Assay results: patent US12366572B2, “Activation of bioluminescence by structural complementation” (Promega Corporation, priority 2013, dated 2025)

B1: L149M (protein)
chain: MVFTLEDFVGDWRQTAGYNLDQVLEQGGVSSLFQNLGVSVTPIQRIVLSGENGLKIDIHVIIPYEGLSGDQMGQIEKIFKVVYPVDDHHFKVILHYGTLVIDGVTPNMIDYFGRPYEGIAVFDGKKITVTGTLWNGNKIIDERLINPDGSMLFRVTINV
B2: 11S: evolved non-luminescent polypeptide variant 11S (12S-51) (protein)
chain: MVFTLEDFVGDWEQTAAYNLDQVLEQGGVSSLLQNLAVSVTPIQRIVRSGENALKIDIHVIIPYEGLSADQMAQIEEVFKVVYPVDDHHFKVILPYGTLVIDGVTPNMLNYFGRPYEGIAVFDGKKITVTGTLWNGNKIIDERLITPDGSMLFRVTINS

Experiments:
[1] = target: T1, […] peptide (Oplophorus gracilirostris, UniProt Q9GV45); assay: Non-luminescent polypeptide mutant luminescence after complementation with peptide (Example 5, Table 4); conditions: E. coli culture of polypeptide mutant + 1x peptide solution; NANOGLO reagent
[2] = target: T1, […] peptide; assay: as above; conditions: E. coli culture of polypeptide mutant + 1x peptide solution; NANOGLO reagent; remark: listed apart in the source
[3] = tested on: wt Oplophorus 157-169 peptide; assay: Relative specific activity in HEK293T lysates (Example 143); assay type: biochemical; conditions: averages of Vmax and Bmax normalized to NanoLuc
Method: Each clone was inserted into pFN21A HaloTag® CMV Flexi® Vector (Promega G2821), and lysates were prepared as follows: 3 ml HEK293T cells that have been diluted to a concentration of 200,000 cells/ml (600,000 cells total) were plated into each well of a 6-well plate and grown overnight at 37° C. in a CO2 incubator. The following day transfection complexes of each DNA were prepared by combining […] of DNA, Opti-MEM® (Life Technologies 11058-021) to a final volume of 310 μl and 20 μl of FuGENE® HD (Promega E231a). The transfection complexes were incubated for 20 minutes and then 150 μl of each complex added in duplicate to cells. The cells were grown overnight 37° C. in a CO2 incubator. The following day, the cells were washed cells with DPBS (Life Technologies 14190-144), and 1 ml fresh DPBS added. Cells were frozen to lyse and then thawed for testing. Duplicate transfection reactions lysates were combined.
In order to compare the specific activities of Nluc (full length enzyme) to wt Oplophorusl-156 and NLpoly11S in combination with wt Oplophorus 157-169 peptide (binary proteins), substrate titrations were run for all of the samples, but for the binary samples substrate titrations were run at multiple peptide concentrations. Using this format, it was possible to calculate a Vmax value for Nluc and both Vmax and Bmax values for NLpoly11S and wt Oplophorus 1-156. Three separate experiments were run using this format and Vmax and Bmax values were normalized to the Vmax of NanoLuc. Relative specific activities (calculated as averages of Vmax and Bmax) are normalized to NanoLuc.

[4] = Luminescence of NLpoly without NLpep, E. coli clarified lysate (Example 57); assay type: biochemical; conditions: E. coli clarified lysate + NanoGlo+Fz
Method: 50 μL of each lysate and 50 uL NanoGlo+Fz were mixed and incubated for 5 min RT. Luminescence was measured on GloMax® Multi+ with 0.5 sec integration.

[5] = tested on: NLpep78-HT or NLpep79-HT; assay: Luminescence of NLpoly variants without NLpep or with NLpep78-HT / NLpep79-HT (Example 93); assay type: biochemical; conditions: E. coli expression culture
[6] = Substrate specificity of NLpoly 5P and 11S with NLpep79 (Example 97); assay type: biochemical
Method: E. coli clarified lysates were prepared for NLpoly 5P or 11S as described previously. The NLpoly lysates were then serially diluted in steps of 10-fold into PBS+0.1% Prionex.

Molecule | Luminescence with […] [1] | Luminescence with […] [2] | Relative specific activity (*with wt 157-169 peptide) [3] | Luminescence in the absence of NLpep, higher than WT NLpoly [4] [fold] | Luminescence without NLpep or with NLpep78 or NLpep79 [5] | Substrate specificity for furimazine [6]
B1 | 2.89 RLU(mutant)/RLU(WT) | 2.16 RLU(mutant)/RLU(WT) |  |  |  | 
B2 |  |  | 0.18* | ~500 | improved luminescence over the other variants | superior specificity for furimazine than 5P
